Experimental findings from PMC12822413, “TSHR‐Targeting Nucleic Acid Aptamer Treats Graves' Ophthalmopathy via Novel Allosteric Inhibition” (Advanced Science, 2025) are described below.

This assay has as its target T1, thyrotropin receptor (TSHR), wild type, on HEK293T cells stably expressing it (TSHR-293T) (human, UniProt P16473-1).
T1 construct: human thyrotropin receptor, cDNA from GeneCopoeia (NM_000369.4) cloned into pLVX-Puro; also called TSHR-293T cells; source: HEK293T, lentiviral transduction (pLVX-Puro), puromycin selected, on cells
Kind of assay: flow cytometry on cells; competitive binding assay of M22 and the DNA aptamer YC3 on TSHR-293T cells; each in excess against the other. The following applies: one partner purified.

B1: Human monoclonal autoantibody to the TSHR (M22) (antibody, V domains shown)
VH: QVQLVQSGAEVKKPGESLKISCRGSGYRFTSYWINWVRQLPGKGLEWMGRIDPTDSYTNYSPSFKGHVTVSADKSINTAYLQWSSLKASDTGMYYCARLEPGYSSTWSVNWGQGTLVTVS
VL: LTVLTQPPSVSGAPRQRVTISCSGNSSNIGNNAVNWYQQLPGKAPKLLIYYDDQLPSGVSDRFSGSRSGTSASLAIRGLQSEDEADYYCTSWDDSLDSQLFGGGTRLTVL
notes: also called human TSAb; source: bought: RSR (Cardiff, UK)
On to B1, for which the binding result was “binds”.
